Measured values reported in US20110014616.

How the values were obtained:
Test in all cases: cell_activity
[1] = test system: CCR5-specific ZFN pair (synthetic construct); settings: K562, unsorted, Cel-1 assay; 37.5% after SSA sorting
[2] = test system: Factor IX-specific ZFN pair (synthetic construct); settings: K562, unsorted, Cel-1 assay; 40.79% after SSA sorting
[3] = test system: WAS-specific ZFN pair (synthetic construct); settings: K562, Cel-1 assay, day 3

## CCR5 ZFN target site
[1]
  activity: 25 % NHEJ

## Factor IX ZFN target site
[2]
  activity: 17.9 % NHEJ

## WAS ZFN target site
[3]
  activity: 17.9 % NHEJ
